Experimental findings from US20220267469A1 (LIPUM, published 2022) are described below.

Assay [1] has as its target T1, Human BSSL (bile salt-stimulated lipase), native (human, UniProt P19835 21-753).
T1 construct: Native full-length protein purified from human milk (Astra Hässle AB); also called hBSSL; non-biotinylated human BSSL
T1 sequence: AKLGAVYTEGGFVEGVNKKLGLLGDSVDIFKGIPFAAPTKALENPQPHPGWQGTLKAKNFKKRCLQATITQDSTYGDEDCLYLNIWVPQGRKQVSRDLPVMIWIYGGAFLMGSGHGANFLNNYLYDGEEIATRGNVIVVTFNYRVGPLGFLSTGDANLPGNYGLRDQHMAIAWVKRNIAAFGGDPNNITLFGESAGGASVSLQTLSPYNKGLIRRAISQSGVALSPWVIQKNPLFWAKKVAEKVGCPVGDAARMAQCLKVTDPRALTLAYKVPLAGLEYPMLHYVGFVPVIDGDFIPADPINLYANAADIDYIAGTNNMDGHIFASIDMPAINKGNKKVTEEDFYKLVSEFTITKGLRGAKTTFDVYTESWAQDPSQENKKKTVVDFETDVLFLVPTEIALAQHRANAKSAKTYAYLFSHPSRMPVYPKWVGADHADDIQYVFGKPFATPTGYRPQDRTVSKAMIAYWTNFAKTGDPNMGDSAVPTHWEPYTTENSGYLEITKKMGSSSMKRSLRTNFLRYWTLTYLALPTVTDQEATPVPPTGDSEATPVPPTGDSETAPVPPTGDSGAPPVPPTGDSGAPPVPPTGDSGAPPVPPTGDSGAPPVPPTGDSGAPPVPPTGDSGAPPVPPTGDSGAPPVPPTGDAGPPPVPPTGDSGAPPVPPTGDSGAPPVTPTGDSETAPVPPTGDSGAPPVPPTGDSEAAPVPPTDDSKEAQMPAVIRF
Briefly: SPR single cycle kinetics, hIgG4 S228P captured by anti-Fab. The method, then: (§1) Kinetic parameters of the hIgG4 S228P clones were determined by SPR using BIACORE® T200 (GE Healthcare). Single cycle kinetics was used to measure the affinity of the purified hIgG4 molecules to human and mouse BSSL. An anti-Fab antibody (GE Healthcare, #28958325) was immobilized on a CM5 S sensor chip by primary amine coupling using NHS-EDC chemistry. hIgG4 was captured by the anti-Fab antibody, and subsequently, five different concentrations of hBSSL (1:5 dilutions starting from 50 nM) or mBSSL (1:5 dilutions starting from 500 nM) were injected over the surface. The sensor chip surface was regenerated with 10 mM glycine-HCl pH 2.1. For binding to human BSSL, single cycle kinetic data was fitted to a 1:1 binding model and kinetic parameters were retrieved using software BlAevaluation. For mouse BSSL, a steady state analysis was performed by plotting the response level at equilibrium against each concentration, and KD values were retrieved by the BlAevalution software.

Another assay concerns the target T2, Mouse BSSL, recombinant (mouse, UniProt Q64285 21-599).
T2 construct: Bought (R&D Systems, Cat. no 5658-CE); also called mBSSL; murine BSSL
T2 sequence: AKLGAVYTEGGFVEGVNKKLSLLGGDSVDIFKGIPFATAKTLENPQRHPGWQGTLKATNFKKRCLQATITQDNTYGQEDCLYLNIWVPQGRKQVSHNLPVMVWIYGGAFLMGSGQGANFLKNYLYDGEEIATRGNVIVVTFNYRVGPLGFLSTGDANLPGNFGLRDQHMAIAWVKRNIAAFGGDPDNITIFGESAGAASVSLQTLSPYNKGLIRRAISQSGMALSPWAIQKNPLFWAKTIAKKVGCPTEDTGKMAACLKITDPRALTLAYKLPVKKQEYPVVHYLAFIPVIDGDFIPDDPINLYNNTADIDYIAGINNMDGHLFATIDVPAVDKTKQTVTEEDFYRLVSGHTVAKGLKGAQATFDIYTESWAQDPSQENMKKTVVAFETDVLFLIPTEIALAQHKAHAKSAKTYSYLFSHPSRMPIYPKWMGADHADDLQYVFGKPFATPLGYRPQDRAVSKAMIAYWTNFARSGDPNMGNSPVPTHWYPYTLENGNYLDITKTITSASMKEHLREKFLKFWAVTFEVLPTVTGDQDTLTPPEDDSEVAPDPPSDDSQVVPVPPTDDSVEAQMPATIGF
Briefly: SPR steady state, hIgG4 S228P captured by anti-Fab. On the procedure: as §1

Assay [2] has as its target T3, Biotinylated human BSSL (human, UniProt P19835 21-753, Biotinylated on glycosacarides, 30-40 biotin/BSSL).
T3 construct: hBSSL biotinylated in house; also called b-hBSSL; human BSSL-biotin
T3 sequence: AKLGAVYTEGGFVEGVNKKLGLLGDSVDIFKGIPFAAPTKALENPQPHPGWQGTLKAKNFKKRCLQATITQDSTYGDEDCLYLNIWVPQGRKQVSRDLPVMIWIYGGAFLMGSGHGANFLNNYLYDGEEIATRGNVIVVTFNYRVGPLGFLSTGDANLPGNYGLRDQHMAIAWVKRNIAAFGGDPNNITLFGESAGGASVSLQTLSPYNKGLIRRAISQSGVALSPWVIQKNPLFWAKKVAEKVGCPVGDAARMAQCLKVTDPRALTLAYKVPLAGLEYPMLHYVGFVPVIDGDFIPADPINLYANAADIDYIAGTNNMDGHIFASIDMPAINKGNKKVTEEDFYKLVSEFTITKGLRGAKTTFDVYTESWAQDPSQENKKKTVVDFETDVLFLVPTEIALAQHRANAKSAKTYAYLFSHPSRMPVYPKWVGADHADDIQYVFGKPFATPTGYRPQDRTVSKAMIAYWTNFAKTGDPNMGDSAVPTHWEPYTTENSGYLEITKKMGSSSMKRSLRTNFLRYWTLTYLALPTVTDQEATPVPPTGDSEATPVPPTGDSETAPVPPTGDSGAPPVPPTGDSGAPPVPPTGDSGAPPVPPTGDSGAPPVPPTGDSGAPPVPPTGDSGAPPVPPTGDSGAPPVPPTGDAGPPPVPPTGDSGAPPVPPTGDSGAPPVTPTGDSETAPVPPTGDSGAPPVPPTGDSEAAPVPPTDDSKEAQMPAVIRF
Briefly: flow cytometry displacement assay; 1.5 ug antibody, 1 ug b-hBSSL. On the procedure:
(§2) The 28 BSSL-specific hIgG4 antibodies and the five reference antibodies at different concentrations (ranging from 0.5 μg to 3.0 μg per reaction; see Table 10) were added to b-hBSSL (1 μg per reaction, see Table 2) in round-bottom polystyrene tubes, lx PBS (pH 7.4) was added to a final volume of 20 μl and the antibody/b-hBSSL mixtures were incubated for 30 min. at +4° C. to facilitate binding of antibodies to BSSL. Buffy coat (50 μl) was then added to each antibody/b-hBSSL mixture and incubation continued for another 30 min at +4° C. Thereafter, 2 ml of FACS lysing solution (BD Biosciences) was added and the cells were incubated for 10 min at room temperature in order to lyse erythrocytes and fix the white blood cells. The cells were then centrifuged for 5 min. at 200×g, the resulting pellets were washed by adding 2 ml of FACS buffer (1×PBS supplemented with 1% FCS and 0.1% NaN3) and centrifuged again. Finally, the supernatants were discarded and the cells were resuspended in the last drop of liquid, approximately 50 μl.
(§3) 5 μl of BV421-labelled anti-human CD14 (BD Biosciences) and 5 μl of BB515-labelled streptavidin (BD Biosciences) was added to each tube and incubated for 30 min, at +4° C., protected from light. Thereafter, cells were washed twice with FACS buffer, resuspended in 500 μl FACS buffer, and run on BD LSRII flow cytometer (BD Biosciences). Finally, data were analyzed using FlowJo software (BD Biosciences).

Assay [3] concerns the target T3, Biotinylated human BSSL. Kind of assay: flow cytometry displacement assay; 3.0 ug antibody, 1 ug b-hBSSL. The method, then: as §2, §3
On the technique in general: Flow cytometry measures light scatter and fluorescence of single cells or particles in a stream.

B1: S-SL048-13 hIgG4 S228P (antibody, V domains shown)
VH: QVQLVQSGAEVKKPGASVKVSCKASGYTFTSYNMHWVRQAPGQGLEWIGVINPSDGATSYTQKFQGRVTMTRDTSTSTVYMELSSLRSEDTAVYYCARDYYGSSPLGYWGQGTLVTVSS
VL: DIQMTQSPSSLSASVGDRVTITCSASPSISYLNWYQQKPGKAPKLLIYATSSLASGVPSRFSGSGSGTDFTLTISSLQPEDFATYYCQQRSSSPTFGQGTKLEIK
notes: Tested as human IgG4 S228P
Take B1: the Kd (usually the equilibrium constant for the complex coming apart) in assay [1] was found to be 0.9 nM; with Mouse BSSL, recombinant, 57 nM.

B2: S-SL048-86 hIgG4 S228P (antibody, V domains shown)
VH: QVQLVQSGAEVKKPGASVKVSCKASGYTFTSYNMHWVRQAPGQGLEWMGVINPGDGATSYAQKFQGRVTMTRDTSTSTVYMELSSLRSEDTAVYYCARDYYGSSPLGYWGQGTLVTVSS
VL: DIQMTQSPSSLSASVGDRVTITCRASQSISYLHWYQQKPGKAPKLLIYATSSLQSGVPSRFSGSGSGTDFTLTISSLQPEDFATYYCHQRSSYPTFGQGTKLEIK
notes: Tested as human IgG4 S228P
As to B2, the equilibrium dissociation constant (Kd) in assay [1] was found to be 6.8 nM; with Mouse BSSL, recombinant, 167 nM.

B3: S-SL048-112 hIgG4 S228P (antibody, V domains shown)
VH: QVQLVQSGAEVKKPGASVKVSCKASGYTFTSYNMHWVRQAPGQGLEWIGIIYPGDGATSYNQKFKGRVTMTRDTSTSTVYMELSSLRSEDTAVYYCARDYYGSSPLGYWGQGTLVTVSS
VL: DIQMTQSPSSLSASVGDRVTITCRASSSISYMHWYQQKPGKAPKLLIYATSRLASGVPSRFSGSGSGTDFTLTISSLQPEDFATYYCHQRSSTPTFGQGTKLEIK
notes: Tested as human IgG4 S228P
B3: the Kd in assay [1] worked out at 5 nM. Also, the “percentage reduction of b-hBSSL binding to CD14+ monocytes” value turned out to be 28% with Biotinylated human BSSL [2] and 54% with Biotinylated human BSSL [3].

B4: S-SL048-105 hIgG4 S228P (antibody, V domains shown)
VH: QVQLVQSGAEVKKPGASVKVSCKASGYTFTSYNMHWVRQAPGQGLEWMGVINPSDGATSYAQKFQGRVTMTRDTSTSTVYMELSSLRSEDTAVYYCARDYYGSSPLGYWGQGTLVTVSS
VL: DIQMTQSPSSLSASVGDRVTITCSASQSISYLHWYQQKPGKAPKLLIYAASKLPSGVPSRFSGSGSGTDFTLTISSLQPEDFATYYCHQRSSYPTFGQGTKLEIK
notes: Tested as human IgG4 S228P
With B4, the Kd in assay [1] worked out at 6 nM; with Mouse BSSL, recombinant, 237 nM.

B5: S-SL048-134 hIgG4 S228P (antibody, V domains shown)
VH: QVQLVQSGAEVKKPGASVKVSCKASGYTFTSYNMHWVRQAPGQGLEWMGVINPSDGATSYAQKFKGRVTMTRDTSTSTVYMELSSLRSEDTAVYYCARDYYGSSPLGYWGQGTLVTVSS
VL: DIQMTQSPSSLSASVGDRVTITCRASPSISYLNWYQQKPGKAPKLLIYATSKLPSGVPSRFSGSGSGTDFTLTISSLQPEDFATYYCQQRSSYPTFGQGTKLEIK
notes: Tested as human IgG4 S228P
Turning to B5, the Kd in assay [1] came out at 1.8 nM.

B6: S-SL048-115 hIgG4 S228P (antibody, V domains shown)
VH: QVQLVQSGAEVKKPGASVKVSCKASGYTFTSYNMHWVRQAPGQGLEWMGVINPSDGATSYAQKFKGRVTMTRDTSTSTVYMELSSLRSEDTAVYYCARDYYGSSPLGYWGQGTLVTVSS
VL: DIQMTQSPSSLSASVGDRVTITCRASQSISYMHWYQQKPGKAPKLLIYAASKLPSGVPSRFSGSGSGTDFTLTISSLQPEDFATYYCHQRSSSPTFGQGTKLEIK
notes: Tested as human IgG4 S228P
In the case of B6, the Kd was 6 nM in assay [1] and 186 nM with Mouse BSSL, recombinant.
